One assay has as its target IL-6:sIL-6R complex (UniProt P05231).
The target in another assay is IL-11:sIL-11R complex (UniProt P20809).
In assay [1] the target is Hyper-IL-6 (Homo sapiens) (UniProt P05231). The conditions noted are these: cited from earlier work.

We go through three substances from PMC8649222.

A word on the Kd: it is the concentration at which binding is half-saturated.

Chain of sgp130Fc (P40189 23-619): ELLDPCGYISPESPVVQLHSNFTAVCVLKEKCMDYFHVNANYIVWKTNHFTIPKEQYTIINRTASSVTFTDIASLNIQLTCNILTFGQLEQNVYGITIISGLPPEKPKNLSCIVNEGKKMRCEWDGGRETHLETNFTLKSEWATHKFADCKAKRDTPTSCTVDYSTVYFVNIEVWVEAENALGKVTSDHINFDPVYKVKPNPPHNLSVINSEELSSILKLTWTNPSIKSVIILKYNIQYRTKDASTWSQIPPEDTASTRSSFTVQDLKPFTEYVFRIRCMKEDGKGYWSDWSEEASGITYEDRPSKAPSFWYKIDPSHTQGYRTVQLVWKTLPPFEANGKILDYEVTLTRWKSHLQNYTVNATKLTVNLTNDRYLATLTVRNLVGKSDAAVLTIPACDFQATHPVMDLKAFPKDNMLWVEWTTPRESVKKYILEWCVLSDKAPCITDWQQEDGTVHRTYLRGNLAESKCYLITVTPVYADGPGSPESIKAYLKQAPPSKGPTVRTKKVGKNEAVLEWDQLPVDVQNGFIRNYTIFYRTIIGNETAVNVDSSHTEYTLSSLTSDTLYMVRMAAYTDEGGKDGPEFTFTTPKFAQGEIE
Chain of IL-6:sIL-6R complex (P05231 30-212, chain 1 of 2): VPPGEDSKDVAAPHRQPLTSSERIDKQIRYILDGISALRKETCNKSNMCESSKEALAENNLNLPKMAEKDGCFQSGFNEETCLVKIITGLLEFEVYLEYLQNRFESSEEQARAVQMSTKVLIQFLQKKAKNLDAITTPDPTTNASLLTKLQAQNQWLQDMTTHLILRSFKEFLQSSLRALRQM
Chain of IL-6:sIL-6R complex (P08887 20-365, chain 2 of 2, further chain): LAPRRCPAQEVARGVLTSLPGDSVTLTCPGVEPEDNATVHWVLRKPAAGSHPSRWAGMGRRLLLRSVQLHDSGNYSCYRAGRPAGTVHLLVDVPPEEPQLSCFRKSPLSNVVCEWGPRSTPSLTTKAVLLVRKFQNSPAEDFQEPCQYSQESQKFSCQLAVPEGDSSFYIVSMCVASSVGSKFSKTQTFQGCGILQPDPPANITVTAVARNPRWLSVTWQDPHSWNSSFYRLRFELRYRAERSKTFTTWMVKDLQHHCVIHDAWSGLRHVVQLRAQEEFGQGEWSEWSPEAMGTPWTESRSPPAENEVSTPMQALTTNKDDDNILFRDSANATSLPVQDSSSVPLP
Chain of sgp130^R281QFc (P40189 23-619 R281Q): as the sequence (P40189 23-619) above, with R259Q counted along it
Chain of IL-11:sIL-11R complex (P20809 22-199, chain 1 of 2): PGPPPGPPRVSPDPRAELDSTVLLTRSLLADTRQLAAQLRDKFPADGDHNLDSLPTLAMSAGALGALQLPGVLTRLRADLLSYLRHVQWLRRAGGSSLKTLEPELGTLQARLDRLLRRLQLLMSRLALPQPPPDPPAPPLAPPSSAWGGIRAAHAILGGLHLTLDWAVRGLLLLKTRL
Chain of IL-11:sIL-11R complex (Q14626 24-370, chain 2 of 2, further chain): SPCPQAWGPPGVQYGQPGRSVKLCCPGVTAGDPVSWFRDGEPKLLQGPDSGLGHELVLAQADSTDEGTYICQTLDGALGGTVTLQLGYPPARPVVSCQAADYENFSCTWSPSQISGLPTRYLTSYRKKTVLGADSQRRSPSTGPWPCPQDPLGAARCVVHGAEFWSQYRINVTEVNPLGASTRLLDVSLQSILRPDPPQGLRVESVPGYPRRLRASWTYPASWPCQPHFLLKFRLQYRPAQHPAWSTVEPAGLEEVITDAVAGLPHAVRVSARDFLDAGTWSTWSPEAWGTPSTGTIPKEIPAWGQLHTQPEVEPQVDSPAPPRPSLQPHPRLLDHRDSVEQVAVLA
Chain of Hyper-IL-6 (Homo sapiens) (P05231 30-212, chain 1 of 2): as the sequence (P05231 30-212, chain 1 of 2) above
Chain of Hyper-IL-6 (Homo sapiens) (partner, as listed by the source, chain 2 of 2): as the sequence (P08887 20-365, chain 2 of 2, further chain) above

“sgp130Fc (from UniProt P40189 23-619) (Fc fusion)” showed an IC50 of inhibition of IL-6/sIL-6R (50/100 ng/ml) induced proliferation of Ba/F3-gp130 cells (blocks the complex from membrane-bound gp130) in the assay with IL-6:sIL-6R complex of 0.45 nM. Also, the IC50 of inhibition of sIL-11R/IL-11 (10/100 ng/ml) induced proliferation of Ba/F3-gp130 cells (blocks the complex from membrane-bound gp130) in the assay with IL-11:sIL-11R complex worked out at 0.29 nM. Regarding sgp130FlyFc ECD (from UniProt P40189), the equilibrium dissociation constant (Kd) in assay [1] was 0.122 nM. “sgp130^R281QFc (from UniProt P40189 23-619) (Fc fusion)” showed an IC50 of inhibition of sIL-6R/IL-6 (50/100 ng/ml) induced proliferation of Ba/F3-gp130 cells (blocks the complex from membrane-bound gp130) in the assay with IL-6:sIL-6R complex of 0.78 nM.
